Sequences and labels used below:
B1: Gab2HA (other, not shown: small tags and cut ends)
chain: MSGGGGDDVVCTGWLRKSPPEKKLRRYAWKKRWFILRSGRMSGDPDVLEYYKNEHSKKPLRIINLNLCEQVDAGLTFNKKELQDSFVFDIKTSERTFYLVAETEADMNKWVQSICQICGFNQAEESTDSLRNLSSASHGPRSSPAEFSSSQHLLRERKSSAPSHSSQPTLFTFEPPVSSHMQPTLSTSAPQEYLYLHQCISRRTENARSASFSQGTRQKSDTAVQKLAQSNGHCINGVGGQVHGFYSLPKPSRHNTEFKDSTYDLPRSLASHGHTKSSLTGSETDNEDVYTFKMPSNTLCRELGDLLVDNMDVPTTPLSAYQIPRTFTLDKNHNAMTVATPGDSAIAPPPRPPKPSQAETSQWGSIQQRPPISENSRSVAATIPRRNTLPAMDNSRLHRASSCETYEYPARGSGESASWSAEPPGKTAVGRSNSASSDDNYVPMNPGSSTLLAMERPGDNSQSVYIPMSPGPHHFDPLGYPSTALPIHRGPSRGSEIQPPPVNRNLKPDRKAKPTPLDLRNNTVIDELPFKSPVTKSWSRINSHTFNSSSSQYCRPISTQSITSTDSGDSEENYVPMQNPVSASPVPSGTNSPAPKKSTGSVDYLALDFQPGSPSPHRKPSTSSVTSDEKVDYVQVDKEKTQALQNTMQEWTDVRQSSEPSKGAKL
modifications: tyrosyl phosphorylated upon IL-3 stimulation

One test concerns the target T1, SHP-2 (UniProt P35235 2-593).
T1 sequence (looked up): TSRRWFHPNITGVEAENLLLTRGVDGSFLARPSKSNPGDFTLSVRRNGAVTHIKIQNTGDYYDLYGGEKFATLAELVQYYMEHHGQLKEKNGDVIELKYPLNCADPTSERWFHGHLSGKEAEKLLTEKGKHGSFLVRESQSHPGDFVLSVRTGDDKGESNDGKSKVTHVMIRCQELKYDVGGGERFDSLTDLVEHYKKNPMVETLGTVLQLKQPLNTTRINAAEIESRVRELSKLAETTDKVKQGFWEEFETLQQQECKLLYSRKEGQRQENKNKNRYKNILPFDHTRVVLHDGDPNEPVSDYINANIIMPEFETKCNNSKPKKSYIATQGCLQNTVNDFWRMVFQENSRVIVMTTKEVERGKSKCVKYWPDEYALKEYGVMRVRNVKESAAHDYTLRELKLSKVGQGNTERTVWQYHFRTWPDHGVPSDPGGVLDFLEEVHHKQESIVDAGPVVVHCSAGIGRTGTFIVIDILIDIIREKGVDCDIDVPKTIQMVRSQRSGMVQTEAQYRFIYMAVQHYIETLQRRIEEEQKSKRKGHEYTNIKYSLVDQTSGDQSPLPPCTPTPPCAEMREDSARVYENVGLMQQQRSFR
Briefly: cell-based or functional assay.

The target in the test “Gab2HA” is B1. Briefly: co-immunoprecipitation and immunoblotting, BaF3 cells. Background: A western blot detects proteins with antibodies after separation by electrophoresis.
The target of another test is T2, Gab2 (mouse, UniProt Q9Z1S8 1-665, tyrosyl phosphorylated upon stimulation (Y604 and Y633 said to be highly phosphorylated)).
T2 construct: Scaffolding protein; Endogenous protein in lysates of BaF3, BAC1.2F5 and P210BCR-ABL BaF3 cells; also called p97; p97/Gab2
Described as above.

For B1, in the test with SHP-2, the “basal c-fos luciferase activity in BaF3 cells” value was ~2 fold.

B2: Crk (other, UniProt Q64010 2-304, looked up)
chain: AGNFDSEERSSWYWGRLSRQEAVALLQGQRHGVFLVRDSSTSPGDYVLSVSENSRVSHYIINSSGPRPPVPPSPAQPPPGVSPSRLRIGDQEFDSLPALLEFYKIHYLDTTTLIEPVARSRQGSGVILRQEEAEYVRALFDFNGNDEEDLPFKKGDILRIRDKPEEQWWNAEDSEGKRGMIPVPYVEKYRPASASVSALIGGNQEGSHPQPLGGPEPGPYAQPSVNTPLPNLQNGPIYARVIQKRVPNAYDKTALALEVGELVKVTKINVSGQWEGECNGKRGHFPFTHVRLLDQQNPDEDFS
With B2, the binding result with Gab2HA and with Gab2 was “no binding” each time.

B3: Crk-II (other, UniProt Q64010-1 2-304, looked up)
chain: AGNFDSEERSSWYWGRLSRQEAVALLQGQRHGVFLVRDSSTSPGDYVLSVSENSRVSHYIINSSGPRPPVPPSPAQPPPGVSPSRLRIGDQEFDSLPALLEFYKIHYLDTTTLIEPVARSRQGSGVILRQEEAEYVRALFDFNGNDEEDLPFKKGDILRIRDKPEEQWWNAEDSEGKRGMIPVPYVEKYRPASASVSALIGGNQEGSHPQPLGGPEPGPYAQPSVNTPLPNLQNGPIYARVIQKRVPNAYDKTALALEVGELVKVTKINVSGQWEGECNGKRGHFPFTHVRLLDQQNPDEDFS
Take B3: the binding result with Gab2HA and with Gab2 was “no binding” throughout.

B4: Crk-L (other, UniProt P47941 1-303, looked up)
chain: MSSARFDSSDRSAWYMGPVTRQEAQTRLQGQRHGMFLVRDSSTCPGDYVLSVSENSRVSHYIINSLPNRRFKIGDQEFDHLPALLEFYKIHYLDTTTLIEPAPRYPSPPVGSVSAPNLPTAEENLEYVRTLYDFPGNDAEDLPFKKGELLVIIEKPEEQWWSARNKDGRVGMIPVPYVEKLVRSSPHGKHGNRNSNSYGIPEPAHAYAQPQTTTPLPTVASTPGAAINPLPSTQNGPVFAKAIQKRVPCAYDKTALALEVGDIVKVTRMNINGQWEGEVNGRKGLFPFTHVKIFDPQNPDDNE
Take B4: the binding result in the test with Gab2HA and in the test with Gab2 was “no binding” each time.

These data come from patent US20060265769A1 (BETH ISRAEL DEACONESS MEDICAL CENTER, published 2006).
